Results reported in paper PMC8086558, “Membrane Interactions of the Peroxisomal Proteins PEX5 and PEX14” (Frontiers in Cell and Developmental Biology, 2021).

B1: PEX14 NTD (residues 1–104) (domain or fragment, human, UniProt O75381 1-104, looked up)
chain: MASSEQAEQPSQPSSTPGSENVLPREPLIATAVKFLQNSRVRQSPLATRRAFLKKKGLTDEEIDMAFQQSGTAADEPSSLGPATQVVPVQPPHLISQPYSPAGS
notes: human PEX14, N-terminal region up to the transmembrane span, residues 1-104, codon-optimised synthetic gene; holds the globular helical domain (residues 16-80); also called PEX14 (1–104); Pex14 (1–104); source: E. coli BL21 (DE3), purified (Ni-NTA, TEV cleavage, reverse Ni2+ column, SEC Superdex S75); not shown: His6, N-terminal, cleaved
B2: PEX5 NTD (residues 1–315) (domain or fragment)
chain: not shown
notes: human PEX5, N-terminal intrinsically disordered domain, residues 1-315, codon-optimised synthetic gene; harbours eight WF-like motifs (W0-W7); No primer pair is printed for the 1-315 construct; also called PEX5 (1–315); Pex5 (1–315); source: E. coli BL21 (DE3), purified (Ni-NTA under urea lysis, SEC Superdex S75), lyophilized; not shown: His6, N-terminal, kept

Legend:
Conditions in all cases: both partners purified
[1] = target: B2; assay: ITC; 50 uM PEX5 (1-315) injected into the cell with 30 uM PEX14 (1-104); 25 °C; 20 mM NaP pH 6.5, 100 mM NaCl, no bicelles; triplicates; one-site model, number of sites set to 1/8
[2] = target: B2; assay: ITC; 50 uM PEX5 (1-315) injected into the cell with 30 uM PEX14 (1-104); 25 °C; 20 mM NaP pH 6.5, 100 mM NaCl with 44 uM DMPC/D7PC bicelles; triplicates; one-site model, number of sites set to 1/8
[3] = target: B1; assay: ITC; 50 uM PEX5 (1-315) injected into the cell with 30 uM PEX14 (1-104); 25 °C; 20 mM NaP pH 6.5, 100 mM NaCl, no bicelles; triplicates; one-site model, number of sites set to 1/8
[4] = target: B1; assay: ITC; 50 uM PEX5 (1-315) injected into the cell with 30 uM PEX14 (1-104); 25 °C; 20 mM NaP pH 6.5, 100 mM NaCl with 44 uM DMPC/D7PC bicelles; triplicates; one-site model, number of sites set to 1/8

Binder	Kd [1] [nM]	Kd [2] [nM]	dH [3] [kcal/mol]	stoichiometry N [3]	dH [4] [kcal/mol]	stoichiometry N [4]
B1	147 ± 16	260 ± 26				
B2			-147 ± 7	0.125	-92 ± 3	0.125
